Assay results: article PMC2241919

Target: T1, SFVmac PR-RT WT (simian foamy virus from macaque (SFVmac), UniProt P23074 1-751)
T1 sequence: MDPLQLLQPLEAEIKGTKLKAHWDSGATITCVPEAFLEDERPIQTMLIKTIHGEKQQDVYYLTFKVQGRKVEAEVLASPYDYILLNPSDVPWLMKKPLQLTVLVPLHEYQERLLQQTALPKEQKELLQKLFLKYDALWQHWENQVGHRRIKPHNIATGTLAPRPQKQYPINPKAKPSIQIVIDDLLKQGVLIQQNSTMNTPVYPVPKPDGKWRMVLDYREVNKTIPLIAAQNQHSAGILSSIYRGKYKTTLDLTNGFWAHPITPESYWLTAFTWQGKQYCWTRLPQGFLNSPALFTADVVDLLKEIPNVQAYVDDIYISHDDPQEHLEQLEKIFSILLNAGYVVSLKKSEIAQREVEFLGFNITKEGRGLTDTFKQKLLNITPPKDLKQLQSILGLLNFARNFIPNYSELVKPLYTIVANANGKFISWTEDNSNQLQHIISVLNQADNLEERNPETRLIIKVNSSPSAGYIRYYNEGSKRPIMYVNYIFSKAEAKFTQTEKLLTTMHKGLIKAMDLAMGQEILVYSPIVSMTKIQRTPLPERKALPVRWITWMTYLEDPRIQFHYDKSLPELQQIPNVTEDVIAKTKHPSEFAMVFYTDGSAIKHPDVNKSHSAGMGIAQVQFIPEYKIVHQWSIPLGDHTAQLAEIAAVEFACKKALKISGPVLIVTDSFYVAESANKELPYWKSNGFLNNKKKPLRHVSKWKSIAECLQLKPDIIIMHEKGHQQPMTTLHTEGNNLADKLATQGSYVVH
Test: fluorescence anisotropy

B1: 24/40-mer DNA/RNA P/T (DNA:RNA)
DNA: ATCACCAGGAGAGGGGAAAGCGGA
RNA: CUAAUUCCGCUUUCCCCUCUCCUGGUGAUCCUUUCCAUCC
Work on B1 yielded a Kd of 32.4 ± 4.2 nM.

B2: 24/40-mer DNA/DNA P/T (dsDNA)
DNA 1: ATCACCAGGAGAGGGGAAAGCGGA
DNA 2: CTAATTCCGCTTTCCCCTCTCCTGGTGATCCTTTCCATCC
B2 was tested, and the Kd was 36.4 ± 2.4 nM.
